US12649772B2

Molecular target: myelin basic protein peptide on HLA-DRB1*15:01 (human)
Assay: estimate stated in the description; not measured in this filing

In the case of Ob.1A12, the Kd is reported as > 100 µM.
